# Test results as given in publication PMC12823420.
# B1: 15U RNA (ssRNA)
# RNA: UUUUUUUUUUUUUUU
# What was measured:
# [1] = target: UAP56-UCM-1 fusion (Homo sapiens, UniProt Q13838 1-428+P82979:82-115, internal_change); experiment: GCI; 1 mM ATP; RNA immobilized; GCI: 25 mM HEPES pH 7.9, 50 mM KCl, 1 mM MgCl2, 1 mM TCEP, 1 mM ATP, 25 C; AdML pull-down: 20 mM HEPES pH 7.9, 100 mM KCl, 2 mM MgCl2, 5% glycerol, 0.1% Igepal, 1 mM AMP-PNP, RT; unclamping: same with 40 mM KCl, 500 mM KCl washes; settings: protein: recombinant; tags: 10xHis; otherwise unlabelled; single strand
# [2] = target: UAP56 (Homo sapiens, UniProt Q13838 1-428); experiment: as above; settings: protein: recombinant; otherwise unlabelled; single strand
binder,measurement,setting,value
B1,Kd,[1],270 ± 60 nM
same,Kd,[2],780 ± 90 nM
